The target in the experiment is SARS-COV spike on pseudovirus (SARS-CoV, UniProt P59594 14-1255). Put plainly: cell-based or functional assay.

B1: engineered monoclonal antibody 11-11 (antibody, V domains shown)
VH: QVQLQESGPGLVKPSQTLSLTCTVSGGSISSGGYYWSWIRQHPGKGLEWIGYIYYSGSTYYNPSLKSRVTISVDTSKNQFSLKVSSVTAADTAVYYCASSNYYDGSGYNLLESYGMDVWGQGTSVTVSS
VL: QSVLTQPPSVSGAPGQRVTISCTGSSSNIGAGYDVHWYQQLPGTAPKLLIYGNSNRPSGVPDRFSGSRSGTSASLAITGLQAEDEADYYCQSYDSSLSGSWVFGGGTKVTVL
With B1, the “IC50, neutralization of pseudoviruses” value is 0.025 µg/mL.

B2: engineered monoclonal antibody 10-40 (antibody, V domains shown)
VH: QLQLQESGPGLVKPSETLSLTCTVSGGSISSSNFYWGWIRQPPGKGLEWIASITYSGRTFYNPSLKSRVAISVDTSKNQFSLKLSSVTAADTAVYYCARTFPSYYDRSGYHYLNYGMDVWGQGTTVTVSS
VL: NFMLTQPHSMSESPGKTVTISCTRSSGSIASNYVQWYQQRPGSSPTTVIYEDNQRPSGVPDRFSGSIDSSSNSASLTISGLKTEDEADYYCQSYDSSSWVFGGGTKLTVL
Consider B2, for which the “IC50, neutralization of pseudoviruses” value came out at 0.019 µg/mL.

The record behind these values is patent US20240343781A1 (TRUSTEES OF COLUMBIA UNIVERSITY IN THE CITY OF NEW YORK, published 2024).
